Consider one molecule from patent US20110288036A1, “Methods for Treating or Preventing Vascular Graft Failure” (priority 2010, published 2011).

Where no end group is shown, it is not given here. Bounds are passed on as bounds.

This assay addresses MK2 (mitogen-activated protein kinase-activated protein kinase 2), P49137. As to the kind of experiment: cell-based or functional assay.

MK2 (mitogen-activated protein kinase-activated protein kinase 2), P49137, sequence (P49137 46-400): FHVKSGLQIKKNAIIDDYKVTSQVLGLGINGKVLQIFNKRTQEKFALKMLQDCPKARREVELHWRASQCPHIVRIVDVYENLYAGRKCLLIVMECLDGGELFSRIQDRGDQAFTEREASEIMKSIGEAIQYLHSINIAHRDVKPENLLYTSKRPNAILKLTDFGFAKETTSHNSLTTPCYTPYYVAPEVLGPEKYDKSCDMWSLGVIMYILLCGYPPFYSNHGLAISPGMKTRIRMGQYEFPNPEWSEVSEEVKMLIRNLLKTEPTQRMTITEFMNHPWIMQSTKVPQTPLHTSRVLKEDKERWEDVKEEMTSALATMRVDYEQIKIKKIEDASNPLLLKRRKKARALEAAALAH

Molecule YARAAARQARAKALARQLGVAA (not fully specified (C-terminus)) [MMI-0100 (…; SEQ ID NO: 1)] came in with a Percent Activity (radiometric kinase assay, 100 µM peptide) (percent activity) of less than 5.
